This passage reports stoichiometry N and percent of total counts in the peak of 3CD dimer with one cloverleaf RNA results from publication PMC11900867.

In experiment [1] the target is Coxsackievirus B3 (CVB3) 3CD protein (uncleaved 3C^pro-3D^pol) with Cys147Ala, Gly55Ala, Asp58Ala, Val63Ala (coxsackievirus B3 (CVB3)). Description: mass photometry.
Experiment [2] has the same target. The experiment in a line: mass photometry. This is another data set of the same source.
Experiment [3] has as its target Coxsackievirus B3 (CVB3) 3C^pro protease, protease-inactive mutant (Cys147Ala) with Gly55Ala, Asp58Ala, Val63Ala (coxsackievirus B3 (CVB3)). The experiment in a line: SEC. (Size exclusion chromatography separates by hydrodynamic size, large species first.)
Experiment [4] shares this target. The experiment in a line: mass photometry.

Like-named read-outs stand apart in the source and are kept apart here.

As a reminder, the stoichiometry N is the number of molecules, sites or subunits per partner or assembly. As to “Coxsackievirus B3 (CVB3) 3CD protein (uncleaved 3C^pro-3D^pol) with Cys147Ala, Gly55Ala, Asp58Ala, Val63Ala (enzyme)”, the stoichiometry N in experiment [1] and in experiment [2] was 2 in each case. The substance also gave a percent of total counts in the peak of 3CD dimer with one cloverleaf RNA in experiment [2] of 19 to 23%.
Consider “Coxsackievirus B3 (CVB3) 3C^pro protease, protease-inactive mutant (Cys147Ala) with Gly55Ala, Asp58Ala, Val63Ala (enzyme)”, for which the stoichiometry N in experiment [3] and in experiment [4] was 2 throughout.
